{
  "source": "patent US20040235127",
  "proteins": {"B1": {"name": "sfp PPTase (phosphopantetheine transferase derived from Bacillus subtilis) (protein)", "chain": "MKIYGIYMDRPLSQEENERFMSFISPEKREKCRRFYHKEDAHRTLLGDVLVRSVISRQYQLDKSDIRFSTQEYGKPCIPDLPDAHFNISHSGRWVICAFDSQPIGIDIEKTKPISLEIAKRFFSKTEYSDLLAKDKDEQTDYFYHLWSMKESFIKQEGKGLSLPLDSFSVRLHQDGQVSIELPDSHSPCYIKTYEVDPGYKMAVCAAHPDFPEDITMVSYEELL"}},
  "molecular_target": "Schizochytrium PUFA PKS Orf A protein (carrying nine ACP domains)",
  "sequence (chain, as listed by the source)": "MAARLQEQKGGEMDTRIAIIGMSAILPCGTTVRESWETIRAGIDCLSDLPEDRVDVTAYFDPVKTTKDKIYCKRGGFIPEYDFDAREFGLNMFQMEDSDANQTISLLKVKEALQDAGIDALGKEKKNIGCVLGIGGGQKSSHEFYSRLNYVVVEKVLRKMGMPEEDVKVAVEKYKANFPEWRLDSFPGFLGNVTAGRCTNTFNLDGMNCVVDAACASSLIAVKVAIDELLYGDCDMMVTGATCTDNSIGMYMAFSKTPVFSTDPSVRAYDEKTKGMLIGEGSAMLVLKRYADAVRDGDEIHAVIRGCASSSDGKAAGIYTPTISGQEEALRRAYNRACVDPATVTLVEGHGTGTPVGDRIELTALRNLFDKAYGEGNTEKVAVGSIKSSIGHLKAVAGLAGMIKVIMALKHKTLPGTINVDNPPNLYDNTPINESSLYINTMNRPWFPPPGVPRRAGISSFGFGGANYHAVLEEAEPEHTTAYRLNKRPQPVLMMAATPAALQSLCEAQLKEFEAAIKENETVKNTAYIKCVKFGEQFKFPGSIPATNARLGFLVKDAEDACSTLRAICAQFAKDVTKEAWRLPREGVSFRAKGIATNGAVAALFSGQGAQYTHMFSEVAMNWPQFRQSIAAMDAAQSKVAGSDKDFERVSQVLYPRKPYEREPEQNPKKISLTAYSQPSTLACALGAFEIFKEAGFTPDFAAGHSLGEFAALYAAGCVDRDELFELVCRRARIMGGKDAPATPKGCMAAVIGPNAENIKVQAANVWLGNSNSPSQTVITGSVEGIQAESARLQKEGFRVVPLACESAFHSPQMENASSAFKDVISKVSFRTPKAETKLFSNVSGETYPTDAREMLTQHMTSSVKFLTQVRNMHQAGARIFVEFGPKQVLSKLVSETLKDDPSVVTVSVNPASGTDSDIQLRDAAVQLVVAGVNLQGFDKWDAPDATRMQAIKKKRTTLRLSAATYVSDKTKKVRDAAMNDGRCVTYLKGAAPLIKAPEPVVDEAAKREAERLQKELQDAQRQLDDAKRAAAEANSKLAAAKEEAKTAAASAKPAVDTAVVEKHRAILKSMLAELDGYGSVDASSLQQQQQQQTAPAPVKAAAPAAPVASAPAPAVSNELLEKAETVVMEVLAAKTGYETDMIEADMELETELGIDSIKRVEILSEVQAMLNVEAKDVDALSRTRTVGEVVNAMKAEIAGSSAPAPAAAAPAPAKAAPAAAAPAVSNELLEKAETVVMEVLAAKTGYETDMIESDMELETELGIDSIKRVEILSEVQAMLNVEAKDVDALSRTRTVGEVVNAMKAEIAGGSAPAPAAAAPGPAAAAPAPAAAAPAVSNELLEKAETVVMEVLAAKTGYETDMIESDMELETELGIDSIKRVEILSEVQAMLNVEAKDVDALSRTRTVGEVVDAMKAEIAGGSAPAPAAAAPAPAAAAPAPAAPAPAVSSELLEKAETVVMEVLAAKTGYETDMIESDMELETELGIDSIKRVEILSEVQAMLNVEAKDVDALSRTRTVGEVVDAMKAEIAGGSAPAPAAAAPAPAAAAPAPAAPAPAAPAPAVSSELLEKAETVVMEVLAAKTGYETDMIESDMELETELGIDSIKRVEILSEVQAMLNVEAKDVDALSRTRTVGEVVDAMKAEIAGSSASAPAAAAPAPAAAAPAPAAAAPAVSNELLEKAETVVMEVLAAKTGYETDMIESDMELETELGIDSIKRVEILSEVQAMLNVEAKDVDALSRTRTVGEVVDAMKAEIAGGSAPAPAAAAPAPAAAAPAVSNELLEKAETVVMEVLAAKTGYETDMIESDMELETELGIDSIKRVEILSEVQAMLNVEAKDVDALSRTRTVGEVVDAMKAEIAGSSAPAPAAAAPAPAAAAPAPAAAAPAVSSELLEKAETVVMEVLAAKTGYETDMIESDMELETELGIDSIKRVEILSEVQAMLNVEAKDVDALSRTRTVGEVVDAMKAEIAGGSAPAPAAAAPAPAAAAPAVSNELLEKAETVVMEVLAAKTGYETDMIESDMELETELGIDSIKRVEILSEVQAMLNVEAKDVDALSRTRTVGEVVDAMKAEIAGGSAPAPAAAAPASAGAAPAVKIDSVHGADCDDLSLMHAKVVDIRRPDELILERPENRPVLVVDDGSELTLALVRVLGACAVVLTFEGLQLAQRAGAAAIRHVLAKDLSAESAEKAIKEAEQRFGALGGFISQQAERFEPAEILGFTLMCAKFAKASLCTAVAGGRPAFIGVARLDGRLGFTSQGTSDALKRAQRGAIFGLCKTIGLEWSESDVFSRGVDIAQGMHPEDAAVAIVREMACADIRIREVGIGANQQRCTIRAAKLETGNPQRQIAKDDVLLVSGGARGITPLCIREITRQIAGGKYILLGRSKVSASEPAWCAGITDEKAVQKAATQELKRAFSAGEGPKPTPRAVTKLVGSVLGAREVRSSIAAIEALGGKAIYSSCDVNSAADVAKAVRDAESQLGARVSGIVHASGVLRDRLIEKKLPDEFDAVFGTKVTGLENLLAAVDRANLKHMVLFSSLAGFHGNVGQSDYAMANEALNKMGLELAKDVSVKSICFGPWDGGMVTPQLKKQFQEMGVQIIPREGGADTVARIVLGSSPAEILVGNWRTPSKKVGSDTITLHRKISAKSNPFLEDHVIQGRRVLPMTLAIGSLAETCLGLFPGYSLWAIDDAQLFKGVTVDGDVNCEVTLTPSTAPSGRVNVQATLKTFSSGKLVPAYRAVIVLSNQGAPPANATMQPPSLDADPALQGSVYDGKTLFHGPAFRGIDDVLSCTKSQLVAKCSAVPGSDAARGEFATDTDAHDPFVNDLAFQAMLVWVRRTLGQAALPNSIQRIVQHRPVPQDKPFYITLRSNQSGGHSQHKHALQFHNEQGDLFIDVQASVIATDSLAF",
  "data": [
    {"protein": "B1", "values": [
      {"measurement": "DHA production in E. coli co-expressing the PPTase with Orf A, B*, C (FAME analysis by gas-liquid chromatography)", "result": "Co-expression of the sfp construct in cells expressing the Orf A, B*, C proteins, under certain conditions, resulted in DHA production."}
    ]}
  ]
}
